Patent US20030143656A1 (published 2003)
Positions count from the first letter of the chain named. Where “and” joins values, the source holds several entries; their conditions need not be identical. Equal entries are not always repeated. Where no end group is shown, it is not given here. The star is where a group is joined. Biotin = O=C1N[C@H]2[C@H](CS[C@H]2CCCCC(=O)*)N1

How the values were obtained:
GST-PDK1 L155E = target: T1, GST-PDK1 L155E (human, UniProt O15530 1-556); assay: SPR over immobilised biotinylated PIFtide
T1 construct: range 1-556; not shown: N-terminal GST tag, pEBG2T vector
T1 sequence (looked up): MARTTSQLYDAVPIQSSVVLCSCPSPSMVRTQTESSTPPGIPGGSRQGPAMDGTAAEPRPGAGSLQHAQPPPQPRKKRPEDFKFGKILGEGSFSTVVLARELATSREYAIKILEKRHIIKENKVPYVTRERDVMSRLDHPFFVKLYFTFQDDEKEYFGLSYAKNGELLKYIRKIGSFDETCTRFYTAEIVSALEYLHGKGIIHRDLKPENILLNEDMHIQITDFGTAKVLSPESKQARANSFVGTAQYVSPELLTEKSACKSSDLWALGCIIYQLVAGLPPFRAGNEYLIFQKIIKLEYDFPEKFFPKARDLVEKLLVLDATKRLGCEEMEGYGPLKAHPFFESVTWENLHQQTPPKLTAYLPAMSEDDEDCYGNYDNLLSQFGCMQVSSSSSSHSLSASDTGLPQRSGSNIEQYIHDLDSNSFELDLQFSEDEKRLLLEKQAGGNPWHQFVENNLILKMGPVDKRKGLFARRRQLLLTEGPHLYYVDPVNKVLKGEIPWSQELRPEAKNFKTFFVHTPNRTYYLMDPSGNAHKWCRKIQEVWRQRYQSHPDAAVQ
Protocol: (§1) Duplicates of each condition are shown. Similar results were obtained in 3 to 5 separate experiments. (D) Surface Plasmon Resonance measurements were carried out in a BiaCore instrument as described in the Methods to measure the interaction of wild type and mutant GST-PDK1 preparations with the 24 residue synthetic peptide whose sequence encompasses the PDK1 binding site on PIF termed PIFtide [24: Example 2]. PIFtide was immobilised on a SA SensorChip and wild type (wt) or the indicated mutants of PDK1 were injected at a concentration of 40 nM. All data are single determinations from a representative experiment that was repeated at least 3 times with similar results. For clarity, the bulk, refractive index changes associated with the beginning and end 10 seconds of the injection have been removed.
(§2) Binding was analysed directly by surface plasmon resonance in an upgraded Bia-Lite™ system. PIFtide (comprising the last 24 residues of PRK2) was biotinylated though its C-terminal Cys and bound to an streptavidin-coated Sensor/Chip SA, as described previously. Wild type or mutant preparations of GST-PDK1 (10-400 nM) were injected in an intracellular type buffer, over the immobilised biotinylated PIFtide at a flow rate of 30 μl per min as described previously (James et al (1996) Biochem J 315, 709-713). Alternatively, the wild type or mutant preparations of GST-PDK1 (1 μM) were incubated with PIFtide or D978A-PIFtide (0.10 μM) and the mixture injected over the immobilised peptides. The decrease is steady state binding between wild type and mutant GST-PDK1 and peptide was used to determine the Kd of interaction between PDK1 and the peptide. The decrease in the maximal response at different concentrations of peptide was used to evaluate the relative affinities of both peptides for PDK1. The sensor chip surface was regenerated by pulses of 10 mM NaOH. […]

GST-PDK1 L155D = target: T2, GST-PDK1 L155D (human, UniProt O15530 1-556); assay: SPR over immobilised biotinylated PIFtide
T2 construct: range 1-556; also called L155D mutant of GST-PDK1; not shown: N-terminal GST tag, pEBG2T vector
T2 sequence (looked up): T1 sequence (looked up) with E155D
Protocol: as §1, §2

GST-PDK1 L155S = target: T3, GST-PDK1 L155S (human, UniProt O15530 1-556); assay: SPR over immobilised biotinylated PIFtide
T3 construct: range 1-556; not shown: N-terminal GST tag, pEBG2T vector
T3 sequence (looked up): T1 sequence (looked up) with E155S
Protocol: as §1, §2

His-PDK1 = target: T4, His-PDK1 (human, UniProt O15530 52-556); assay: SPR, immobilised biotinylated 24 residue peptide
T4 construct: range 52-556; Expressed in Sf9 cells; also called His-tagged PDK1; PDK1 (residues 52-556) with a hexahistidine tag; not shown: N-terminal hexahistidine (His) tag
T4 sequence (looked up): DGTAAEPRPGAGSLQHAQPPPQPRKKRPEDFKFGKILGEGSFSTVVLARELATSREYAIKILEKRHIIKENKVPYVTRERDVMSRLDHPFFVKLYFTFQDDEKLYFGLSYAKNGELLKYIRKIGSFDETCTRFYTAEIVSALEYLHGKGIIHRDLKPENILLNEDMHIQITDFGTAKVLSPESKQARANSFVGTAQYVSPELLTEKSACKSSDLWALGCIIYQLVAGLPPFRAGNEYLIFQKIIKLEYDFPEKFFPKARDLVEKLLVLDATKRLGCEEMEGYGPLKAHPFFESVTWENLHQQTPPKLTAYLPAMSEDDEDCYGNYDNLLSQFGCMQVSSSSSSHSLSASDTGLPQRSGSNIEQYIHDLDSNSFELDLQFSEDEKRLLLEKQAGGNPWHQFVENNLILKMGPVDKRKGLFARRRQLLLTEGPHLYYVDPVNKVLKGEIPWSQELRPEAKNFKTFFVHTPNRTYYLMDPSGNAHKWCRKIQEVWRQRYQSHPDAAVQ

B1: biotinylated PIFtide, immobilised (peptide)
peptide: REPRILSEEEQEMFRDFDYIADWC(Biotin)
notes: also called immobilised, biotinylated synthetic peptide termed PIFtide; immobilised and biotinylated 24 residue synthetic peptide
B1: no binding (tested: injected at 40 nM) (GST-PDK1 L155E); no binding (tested: injected at 40 nM) (GST-PDK1 L155D); no binding (tested: injected at 40 nM) (GST-PDK1 L155S). For the same binder, the Kd (His-PDK1) was 800 nM and 1500 nM.
